# Assay results reported in patent US20110274696A1 (Amgen, published 2011).
# Changes are numbered by the printed parent chain. Numbers in names are those of the source. Where “and” joins values, the source holds several entries; their conditions need not be identical. Identical values can stand only once. Where no end group is shown, it is not given here.
# T1: human CCR2 (human, UniProt P41597-2 1-360)
# T1 sequence: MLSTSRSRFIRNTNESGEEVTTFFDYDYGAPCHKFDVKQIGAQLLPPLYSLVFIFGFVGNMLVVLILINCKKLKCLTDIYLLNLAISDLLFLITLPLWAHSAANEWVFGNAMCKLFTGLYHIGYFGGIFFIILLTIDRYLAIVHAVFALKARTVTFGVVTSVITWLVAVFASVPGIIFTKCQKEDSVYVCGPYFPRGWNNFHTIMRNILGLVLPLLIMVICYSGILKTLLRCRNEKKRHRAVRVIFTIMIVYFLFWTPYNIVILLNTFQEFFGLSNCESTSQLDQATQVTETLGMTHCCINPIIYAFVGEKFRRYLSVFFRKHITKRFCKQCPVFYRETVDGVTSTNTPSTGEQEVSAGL
# T2: biotinylated CCR2 loop 3 peptide (human, also: biotinylated, position not given here)
# T2 construct: Synthetic peptide (AnaSpec) captured on a NeutrAvidin plate; also called third loop
# T2 peptide: QEFFGLSNCESTSQLDQ
# T3: biotinylated CCR2 loop 2 peptide (human, biotinylated (position not given))
# T3 construct: Synthetic peptide (AnaSpec) captured on a NeutrAvidin plate; also called second extracellular loop peptide
# T3 peptide: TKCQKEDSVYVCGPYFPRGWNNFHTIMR
# B1: anti-CCR2 monoclonal antibody 4.40 (antibody, V domains shown)
# VH: QVQLVESGGGVVQPGRSLRLSCAASGLTFSSYGMHWVRQAPGKGLEWVAVILYDGKNKYYADSVKGRFTISRDNSKNTLYLQMNSLRAEDTAVYYCARDQAYWTYFDAFDIWGQGTMVTVSS
# VL: EIVLTQSPDFQSVTPKEKVTITCRASQSIGSSLHWYQQKPDQSPKLLIKYASQSFSGVPSRFSGSGSATDFTLTINSLEAEDAATYYCHQSSSLPLTFGGGTKVEIKR
# notes: Hybridoma clone from IgG4 XenoMouse mice; Variable domains were also cloned into IgG1, IgG2 and IgG4 formats; also called 4.40.2; 4.40.3
# B2: anti-CCR2 monoclonal antibody 4.9 (antibody, human IgG4, kappa, V domains shown)
# VH: B1 VH with L27F, I51Q, L52T, K56R, N77K, S85R, T104K
# VL: DIQMTQSPSSLSTSVGDRVTITCRASQSISSYLNWYQQKPGKAPKLLIYAASSLQSGVPSRFSGSGSGTDFTLTISSLQPEDFATYYCQQSYNSPCSFGQGTKLEIKR
# notes: Hybridoma clone from IgG4 XenoMouse mice; also called 4.9.2; 4.9.3
# B3: anti-CCR2 antibody 4.40 A68G S230P (antibody, human IgG4 S228P, kappa, V domains shown)
# VH: B1 VH
# VL: B1 VL with A68G
# notes: Recombinant human IgG4 with the hinge mutation S230P (heavy chain) and the germline reversion A68G (light chain) of 4.40; also called 4.40.3 A68G S230P; 4.40.2 A68G S230P
# B4: anti-CCR2 monoclonal antibody 4.39.3 (antibody, human IgG4, kappa, V domains shown)
# VH: QVQLVQSGAEVKKPGASVKVSCKASGYTFTSYYIHWVRQAPGQGLEWMGMINPSGGPTSYAQKFQGRVTMTRDTSTSTVYMDLSSLRSEDTAVFYCARERWYKWNFDAFDIWGQGTMVTVSS
# VL: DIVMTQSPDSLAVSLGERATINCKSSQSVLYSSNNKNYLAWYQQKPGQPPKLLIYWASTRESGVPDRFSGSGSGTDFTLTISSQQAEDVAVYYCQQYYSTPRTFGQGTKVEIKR
# Experiments:
# [1] = biological target: T1, human CCR2; assay: cell-based or functional assay
# [2] = biological target: T1, human CCR2; assay: cell-based or functional assay; remark: listed apart in the source
# [3] = biological target: T2, biotinylated CCR2 loop 3 peptide; assay: peptide ELISA
# Protocol: (§1) In addition, epitope binding to the first and/or second loop of CCR2 was also assessed using a peptide ELISA. A Reacti-Bind NEUTRAVIDIN™ Coated, High Binding Capacity ELISA plate (Pierce; Rockford, Ill.) was washed 3× with PBS/0.05% Tween20 and then coated with 100 ul/well of 6 ug/ml biotinylated CCR2 loop 2 (SEQ ID NO:129) or loop 3 (SEQ ID NO:130) peptide (AnaSpec; San Jose, Calif.). The plate was incubated for 1 hour and then washed 3×. The CCR2 antagonist antibody 4.40.3 A68G S230P or other primary antibody, diluted in PBS/0.1% BSA/0.05% Tween20, was then added to the plate in serial dilution and incubated for 1 hour, as were other controls. The plate was washed 3× and 100 ul/well HRP-Mouse anti-Human IgG4 secondary antibody (Zymed; So. San Francisco, Calif.) was added to all the wells at 1:5000 dilution and incubated for 1 hour. The plate was washed 3× and TMB substrate was added to all the wells and incubated for ˜30 minutes. The color reaction was stopped with 2M H₂SO₄ and the absorbance reading was measured on a plate reader at […] (FIG. 8).
# [4] = biological target: T3, biotinylated CCR2 loop 2 peptide; assay: peptide ELISA, biotinylated peptide on NeutrAvidin plate
# Protocol: as §1
# [5] = biological target: T1, human CCR2; assay: FACS saturation binding, 3 hour assay, 300-19 cells expressing human CCR2; full-length human CCR2 on transfected 300-19 cells, not the chimera; KD in ug/mL
# Protocol: (§2) Briefly, using a buffer of Dulbecco's Phosphate Buffered Saline containing 2% heat inactivated Fetal Bovine Serum, 0.002% Sodium Azide and 0.005 mg/ml Cytochalasin-B (Sigma 6762), 1 million cells in a volume of 100 ul were stained with the test antibody. Fifteen minutes later, a secondary detection antibody, R-Phycoerythrin conjugated Affini-pure F(ab′) fragment Donkey anti-human IgG H+L (Jackson 709-116-149), was added. Tubes were gently shaken for 3 hours at room temperature. After 2 washes in buffer, cells were resuspended in 500 ul of buffer and assessed on a FACS CALIBUR™. A total of 10,000 events per tube were assessed. The mean channel fluorescent intensity was assessed for each concentration of antibody as an indicator for the magnitude of staining.
# [6] = biological target: T3, biotinylated CCR2 loop 2 peptide; assay: capture ELISA, biotinylated CCR2 loop 2 peptide on a NeutrAvidin plate, HRP anti-human IgG4, absorbance at 450 nm
# Protocol: as §1
# [7] = biological target: T1, human CCR2; assay: FACS saturation binding (3 hour assay) on CCR2 transfected 300-19 cells, PE anti-human IgG detection
# Protocol: as §2
# [8] = biological target: T4, CCR5 (human, UniProt P51681 1-352); assay: FACS, AF-488 conjugated antibody on 300-19 cells expressing recombinant CCR5
# T4 construct: also called recombinant CCR5; human CCR5
# Protocol: The selectivity of the 4.40 A68G S230P antibody for human CCR2 was confirmed by the absence of binding to a closely related chemokine receptor, CCR5, as shown in FIG. 9 and by the lack of inhibition of chemotaxis induced by the CCR5/CCR1 ligand MIP-1a (FIG. 3). […] For these studies, 300.19 cells engineered to express CCR5 were incubated with either the CCR2 selective antibody, 4.40 A68G S230P, or the CCR5-selective antibody for 30 minutes. Cells were then washed in FACS buffer (0.02% sodium azide, 2% heat inactivated fetal bovine serum in PBS) and analyzed for cell surface expression using a flow cytometer using standard methods.
# [9] = biological target: T5, RMMR chimeric receptor (N-terminus and 3rd loop of CCR1; 1st and 2nd loops of CCR2), FLAG-tagged; assay: FACS saturation binding on RMMR chimera transfected 300-19 cells
# T5 construct: also called 1st and 2nd loops of CCR2 (RMMR)
# Protocol: as §2, with “Fifteen” for “Briefly, using a buffer of Dulbecco's Phosphate Buffered Saline containing 2% heat inactivated Fetal Bovine Serum, 0.002% Sodium Azide and 0.005 mg/ml Cytochalasin-B (Sigma 6762), 1 million cells in a volume of 100 ul were stained with the test antibody. Fifteen”
# (§3) Binding of antibodies to the CCR2/CCR1 chimeric receptors was assessed using FACS analysis. All receptors were tagged at the N-terminus with FLAG and also stained with the anti-FLAG antibody M1 such that receptor expression could be confirmed. FIGS. 6A & B illustrate the FACS staining of FLAG on the N-terminus with M1 antibody (FIG. 6A) as compared to the staining of 4.40 (FIG. 6B). FIG. 6C illustrates a saturation binding curve of the 4.40 A68G S230P antibody on RMMR chimera transfected 300-19 cells.
# [10] = biological target: T2, biotinylated CCR2 loop 3 peptide; assay: capture ELISA, biotinylated CCR2 loop 3 peptide on a NeutrAvidin plate, HRP anti-human IgG4, absorbance at 450 nm
# Protocol: as §1
# [11] = biological target: T5, RMMR chimeric receptor (N-terminus and …); assay: FACS saturation binding on 300-19 cells expressing the chimera with the first and second extracellular loops of CCR2 (FIG. 6C)
# Protocol: as §2, with “Fifteen” for “Briefly, using a buffer of Dulbecco's Phosphate Buffered Saline containing 2% heat inactivated Fetal Bovine Serum, 0.002% Sodium Azide and 0.005 mg/ml Cytochalasin-B (Sigma 6762), 1 million cells in a volume of 100 ul were stained with the test antibody. Fifteen”
# as §3
# [12] = biological target: T1, human CCR2; assay: cell-based or functional assay; remark: listed apart in the source
# [13] = biological target: cynomolgus monkey CCR2 (cynomolgus monkey); assay: cell-based or functional assay
# T4 sequence (P51681 whole entry): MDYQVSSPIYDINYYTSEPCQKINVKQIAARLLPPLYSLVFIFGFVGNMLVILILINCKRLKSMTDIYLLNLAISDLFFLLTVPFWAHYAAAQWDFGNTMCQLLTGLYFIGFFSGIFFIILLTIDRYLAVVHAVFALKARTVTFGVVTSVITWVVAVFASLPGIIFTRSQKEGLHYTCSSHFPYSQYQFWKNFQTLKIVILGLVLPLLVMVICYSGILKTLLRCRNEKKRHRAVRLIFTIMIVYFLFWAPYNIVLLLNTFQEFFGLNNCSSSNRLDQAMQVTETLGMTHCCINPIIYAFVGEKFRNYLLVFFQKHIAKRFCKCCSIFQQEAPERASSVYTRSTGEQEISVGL
binder,measurement,setting,value
B1,"Inhibition of MCP-1-induced THP-1 Chemotaxis, IC50",[1],0.137 µg/mL
same,Chemotaxis IC50,[2],0.13 µg/mL
same,binding result,[3],no binding
same,binding result,[4],binds
B2,"Inhibition of MCP-1-induced THP-1 Chemotaxis, IC50",[1],0.198 µg/mL
same,Chemotaxis IC50,[2],0.198 µg/mL
same,binding result,[3],no binding
same,binding result,[4],binds
B3,Kd,[5],0.085 µg/mL
same,binding result,[6],binds
same,EC50 (read off the curve),[7],~0.08 µg/mL
same,Kd,[7],0.0849 µg/mL
same,binding result,[8],no binding
same,EC50 (read off the curve),[9],~0.05 µg/mL
same,Kd,[9],0.0226 µg/mL
same,binding result,[10],no binding (tested: about 6 ug/ml)
same,Kd,[11],0.023 µg/mL and 0.16 nM
same,"inhibition of MCP-1 induced actin polymerization in monocytes, human whole blood, IC50",[12],0.168 µg/mL
same,"inhibition of MCP-1 induced pERK phosphorylation in human whole blood, IC50",[12],0.44 µg/mL and 2.9 nM
same,"inhibition of chemotaxis of THP-1 monocytes in response to MCP-1, IC50",[12],0.148 µg/mL
same,"inhibition of collagen IAI mRNA synthesis in LI90 cells induced by MCP-1, IC50",[12],0.89 µg/mL and 6.2 nM
same,"inhibition of MCP-1 induced whole blood actin polymerization in the cynomolgus monkey, IC50",[13],0.49 µg/mL
B4,"Inhibition of MCP-1-induced THP-1 Chemotaxis, IC50",[1],0.139 µg/mL
same,Chemotaxis IC50,[2],0.139 µg/mL
